One substance from patent US20220324988A1 can be followed below.

The target in this assay is human CD40 expressed on cells (human) (UniProt P25942). As to the kind of experiment: cell-based or functional assay.
Sequence of human CD40 expressed on cells (human) (P25942 21-277): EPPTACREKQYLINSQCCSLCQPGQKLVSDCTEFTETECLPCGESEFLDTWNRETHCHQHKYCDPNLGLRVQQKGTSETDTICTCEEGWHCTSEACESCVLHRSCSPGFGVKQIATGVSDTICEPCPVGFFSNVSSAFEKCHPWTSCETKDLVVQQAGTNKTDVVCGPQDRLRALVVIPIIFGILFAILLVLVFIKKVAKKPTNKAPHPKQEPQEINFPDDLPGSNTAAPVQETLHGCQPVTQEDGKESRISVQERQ

In the case of “CD40L (positive control, produced in 293F cells) (ligand)”, the GFP positive rate for Jurkat/NF-kB-GFP+hCD40 single clones after CD40L stimulation (100 nM) came out at 94.7%.
